Results on 31 sequences are retold here after the supplement of paper PMC9170038.

For the data set, the system named is MS2 coat protein. The experiment in a line: apparent KD of MS2 coat protein; designed switch direction (-1 OFF switch, 1 ON switch): -1; higher = weaker reporter binding. Put shortly: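 SNAP-549-labelled MS2 coat protein was titrated, doubling from 0.7 or 1.5 nM to 3 µM, over designed RNA switches transcribed on Illumina chips by stalled E. coli RNA polymerase. Runs were done without input, with 200 uM small-molecule ligand, or with an oligonucleotide input. Apparent KD is the per-design median over clusters of curve-fitted normalised fluorescence.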

[1] abbreviates: Eterna round: R95, input ligand: FMN 200 uM.
Where [2] appears, read: Eterna round: R95, input ligand: microRNA oligo, concentration not stated.
The mark [3] stands for this setting: Eterna round: R95, input ligand: none.
Where [4] appears, read: input ligand: microRNA oligo, concentration not stated.

In the case of “CAUGAUCUUCGGAUCAUGUACAUGAGGAUCACCCAUGUGACGAGUUUAUGGGUGAACAAGCUUUUUGCUCGUCUUAU [Sensor v3 - Turn-off variant 1 - 6] (puzzle: Sensor v3, turn-off variant 1)”, the “apparent KD of MS2 coat protein” value by setting is: under setting [1], 60 nM; under setting [2], 11.2 nM; under setting [3], 68.9 nM.
Consider “UGAAUACGUGUUAGGAUAUGGUUUGGUAUUUCGGGCUAGAAGGGACAUGAGGAUCACCCAUGUAAUUGAUAGGU [-16.2, -13.6 kcal, 27% A] (Eterna round: R97, puzzle: Brourd's mod of Exclusion 4)”, for which the “apparent KD of MS2 coat protein” value by setting is: (input ligand: FMN 200 uM) 52.4 nM; (input ligand: none) 38.5 nM.
In the same order, the values of “CAUGGCUACUAGGAUAUGUCGCGAUGGACGCAAACAGAAGGAGUAACAUGAGGAUCACCCAUGUUGUGACCUAA [Mabiaris] (Eterna round: R97, puzzle: Exclusion 6)” are 200 nM and 28.9 nM.
On to “AGUAACAGAGGAUAUACUAUUUUAUGUAUUUAUUAUUUUGAACAUGAGGAUCACCCAUGUAGAAGGCUGAAUAA [JMF 89] (puzzle: Exclusion 2)”, for which the “apparent KD of MS2 coat protein” value under setting [2] is 23.3 nM.
Consider “CCCUCACAUGAGGAUCACCCAUGUCAGGAUAUUCGAACGGUGUGUUUUUGGCCAGUUGGAAGAAGGGACAUAAA [Riinesbe] (puzzle: Exclusion 1)”, for which the “apparent KD of MS2 coat protein” value under setting [2] turned out to be 36.2 nM.
In the case of “AUCCUUAACAAGGAUAUCGGGCGGGAAAUUGUUUGAGAAGGUGUAACAUGAGGAUCACCCAUGUUAAACGUGGA [-18.8, -18.6 kcal, A 32%] (Eterna round: R97, puzzle: Exclusion 6)”, the “apparent KD of MS2 coat protein” value is, setting by setting: (input ligand: FMN 200 uM) 22.3 nM; (input ligand: none) 23.4 nM.
For “CGCGAGGGAGGAUAUGCACUCAGUGAUCACGCCCAAAUUCGACAUGAGGAUCACCCAUGUAGAAGGCCCGGCUA [EX2 B.15] (Eterna round: R97, puzzle: Exclusion 2)”, in that order: 21.1 nM and 19 nM.
Consider “AGUAGGUCUACCUUGGUGGAUCUGCAUUUUUGCAGGUGUACAUGAGGAUCACCCAUGUCCUCAUUUGCUCGUCUUAU [JL turnoff v2 99.30] (puzzle: Sensor v3, turn-off variant 2)”, for which the “apparent KD of MS2 coat protein” value runs as follows: under setting [1], 488 nM; under setting [2], 629 nM; under setting [3], 473 nM.
As for “GUUUUCAGACGGAGAUCCUACAUGAGGAUCACCCAUGUCUCUCAAGCUAAUUGCUCGUCUUAUUCUCCUCUGUUCUC [Elimod 39 - Jieux - Sensor, turn-off variant 1] (Eterna round: R97, puzzle: Sensor, turn-off variant 1)”, the “apparent KD of MS2 coat protein” value runs as follows: (input ligand: FMN 200 uM) 35.6 nM; (input ligand: none) 41 nM.
In the same order, the values of “AGUGUGUGGCAGGAUAUGCUGUUGAUUGGUGGAGCAGAAGGGUCUACAUGAGGAUCACCCAUGUAAGCGGUUGA [Ex6 #30] (Eterna round: R97, puzzle: Exclusion 6)” are 125 nM and 36.5 nM.
In the same order, the values of “AGUUGGCGAGGAUAUACAUGAGGAUCACCCAUGUGAGAGAUACUAGUGAGGUCGAUGAGUAGAAGGCGCUGACA [Mat X3R4 m18] (Eterna round: R97, puzzle: Exclusion 3)” are 186 nM and 142 nM.
For “GUAAUUAAUGUAGGAUAUGCAAGGCGAAACAUGAGAGAAGGCCAUGUGGAUCACCCAUGUAAUGCGGUCUGCGUACAGAUCGCU [salish99_ExNG1_r4_003] (Eterna round: R96, puzzle: Exclusion NG 1)”, the “apparent KD of MS2 coat protein” value reads like this: (input ligand: FMN 200 uM) 38 nM; under setting [4], 16.1 nM; (input ligand: none) 65.5 nM.
For “GGUCAGAUGGUAGGAUAUCCAUAUCGAGUGACCCUUUCAUAACAUGAGGAUCACCCAUGUCGGUGGGAGAAGGGCUGUACGGCG [salish99_ExNG02_R04_021] (Eterna round: R96, puzzle: Exclusion NG 2)”, the “apparent KD of MS2 coat protein” value is 34.8 nM (input ligand: FMN 200 uM), 19.1 nM under setting [4] and 43.3 nM (input ligand: none).
Turning to “GCAGGCGUCUUGGCUCGUCUUAUUUUGAGAGGAUUGAUAACAUGAGGAUCACCCAUGUUUGUGGGAGAGUUGCAGUG [JR_SV3TOV2_Sub016] (puzzle: Sensor v3, turn-off variant 2)”, the “apparent KD of MS2 coat protein” value by setting is: under setting [1], 108 nM; under setting [2], 283 nM; under setting [3], 133 nM.
On to “CCUUGACAUGAGGAUCACCCAUGUGAGGAUAUAGAAUACAUCAUACACUGACCUCCUUCUAGAAGGCACAUCUC [1986#2] (Eterna round: R97, puzzle: Exclusion 1)”, for which the “apparent KD of MS2 coat protein” value was 14.1 nM (input ligand: FMN 200 uM) and 15.3 nM (input ligand: none).
For “UAUGGUUAAGUCAGGAUAUGCUCGUAGAGGUCUAUGCAGAAGGGACAUGAGGAUCACCCAUGUAAAGUCGUGUU [Ex4 #70] (Eterna round: R97, puzzle: Brourd's mod of Exclusion 4)”, in that order: 51.5 nM and 25.1 nM.
“AGAUCACAUGAGGAUCACCCAUGUCAGGAUAUCGUCACUGGAGCUGCGGCUCCAGUGACGAGAAGGGAUAAUUA [E1/4-A3] (Eterna round: R97, puzzle: Exclusion 1)”: the “apparent KD of MS2 coat protein” value came to 92.4 nM (input ligand: FMN 200 uM) and 52 nM (input ligand: none).
For “CCGACUCAAGGAUAUUGUACUGCUGACAUGAGGAUCACCCAUGUGUCCUGACGCGGACGACGAGAAGGUGACGACA [Eternabot (Original) Solution 44] (Eterna round: R97, puzzle: Exclusion 5)”, in that order: 981 nM and 292 nM.
As to “AAAAAACAUGAGGAUCACCCAUGUCAGGAUAUCCGCGAAGGAAAGAAAAAAAAAAAAGGGAGAAGGGACAAAAA [April's Ex-date #4] (puzzle: Exclusion 1)”, the “apparent KD of MS2 coat protein” value is, setting by setting: under setting [1], 49.5 nM; under setting [2], 52.8 nM; under setting [3], 28.5 nM.
Take “UCGGCGCGAGGAUAUGCGGUUUGUGCUUCGGGCCCUCGCGUACAUGAGGAUCACCCAUGUAGAAGGCGCGCCGC [Apr-15 SS2-45] (puzzle: Exclusion 2)”: under setting [2], the “apparent KD of MS2 coat protein” value came out at 75.2 nM.
Turning to “AGCCUAGCAGGAUAUGCCCGGGAUAACAUGAGGAUCACCCAUGUGACUGAUUGAUAUCUUGCAGAAGGGCUAGGGA [JL-EX5-4.06 ViennaUCT mod] (Eterna round: R97, puzzle: Exclusion 5)”, the “apparent KD of MS2 coat protein” value (input ligand: FMN 200 uM) turned out to be 187 nM and the “apparent KD of MS2 coat protein” value (input ligand: none) was found to be 25.5 nM.
For “AAAUUCAGAGGAUAUGCGCAUAGAUAAGACUUUUUUUUUUAACAUGAGGAUCACCCAUGUAGAAGGCUGUAAAU [Ex2 #52] (Eterna round: R97, puzzle: Exclusion 2)”, in that order: 24 nM and 25.5 nM.
Regarding “GAUUGACAUGAGGAUCACCCAUGUGAGGAUAUCGUCUGGUACGUGUUGGCUGGCAUCUCGAGAAGGCGCAUAGG [Exclusion 1 V56] (puzzle: Exclusion 1)”, the “apparent KD of MS2 coat protein” value by setting is: under setting [1], 103 nM; under setting [2], 59.4 nM; under setting [3], 76.4 nM.
With “CCAGCAAAUGUAAGGAUAUGCUGGUCCUUGGAUCAGCAGAAGGUACAUGAGGAUCACCCAUGUGUGAAAGCUGG [Eli bmx4 4.57] (Eterna round: R97, puzzle: Brourd's mod of Exclusion 4)”, the “apparent KD of MS2 coat protein” value was 674 nM (input ligand: FMN 200 uM) and 166 nM (input ligand: none).
For “GUGUAACAUGAGGAUCACCCAUGUCAGGAUAUCCGCUUUAACUAAAUAAAUAAAUAGUGGAGAAGGGACAGCGC [-13.9, -13.37 kcal, 36% A] (Eterna round: R97, puzzle: Exclusion 1)”, in that order: 55.7 nM and 46.8 nM.
In the case of “AAAUAGCUAGAGGAUAUCGGAUAGGAUUUACUACGAGAAGGUUAGACAUGAGGAUCACCCAUGUUGUGUUGGGA [EX6 #19] (Eterna round: R97, puzzle: Exclusion 6)”, the “apparent KD of MS2 coat protein” value amounted to 59.6 nM (input ligand: FMN 200 uM) and 67.9 nM (input ligand: none).
In the same order, the values of “UUGUUACAUGAGGAUCACCCAUGUGAGGAUAUGGUUAAGUAAUGUAAUGUAAAGUAAUCCAGAAGGCACAUGUU [1st #25] (Eterna round: R97, puzzle: Exclusion 1)” are 353 nM and 196 nM.
As for “AAAUCGGAGGAGGAUAUGGUACAGGAAAUGGUGCCAGAAGGUUUCACAUGAGGAUCACCCAUGUCAAAUAGCGA [EX6 #60] (Eterna round: R97, puzzle: Exclusion 6)”, the “apparent KD of MS2 coat protein” value runs as follows: (input ligand: FMN 200 uM) 19.1 nM; (input ligand: none) 27.1 nM.
In the same order, the values of “UAAUUUUUAGUAAGGAUAUCGGUCCCAAGGGACAACGAGAAGGUACAUGAGGAUCACCCAUGUGAUAAAAGAAU [Mod of Zala 5 - Jieux - Brourd's Mod of Exclusion 4] (Eterna round: R97, puzzle: Brourd's mod of Exclusion 4)” are 204 nM and 28.8 nM.
Take “UUUGAAUAAGUGAGGAUAUACUGUUAGUAAUGAUUGUAGAAGGUACAUGAGGAUCACCCAUGUUUAUUAUUUAU [JR_BME4_Sub039] (puzzle: Brourd's mod of Exclusion 4)”: the “apparent KD of MS2 coat protein” value under setting [2] was determined as 20.7 nM.
Consider “GCACGGAUCGUAGGAUAUCAUUGCGAUUAGCUAUGAGAAGGACGACAUGAGGAUCACCCAUGUCCUCUAAUUAGCCUUCCGUGC [Eli exng1 - 017] (Eterna round: R96, puzzle: Exclusion NG 1)”, for which the “apparent KD of MS2 coat protein” value is 52.9 nM (input ligand: FMN 200 uM), 21.8 nM under setting [4] and 38.5 nM (input ligand: none).
